Columns and labels:
GPR49-Fc = target: T1, GPR49-Fc (Homo sapiens, UniProt O75473); assay: Solution affinity surface plasmon resonance of RSPO-1 on GPR49-Fc; assay type: binding; conditions: solution affinity SPR
T1 construct: FLAG (C)
Description: Methods: Binding of RSPO to GPR49 was analyzed using solution affinity surface plasmon resonance (Day E S, et al. Biochemistry. 2005 Feb. 15; 44(6):1919-31). The method utilizes conditions of so-called “mass-transport-limited” binding, in which the initial rate of ligand binding (protein binding to the senor chip) is proportional to the concentration of ligand in solution (BIApplications Handbook (1994) Chapter 6: Concentration measurement, pp 6-1-6-10, Pharmacia Biosensor AB). Under these conditions, binding of the soluble analyte (protein flowing over chip surface) to the immobilized protein on the chip is fast compared to the diffusion of the analyte into the dextran matrix on the chip surface. Therefore, the diffusion properties of the analyte and the concentration of analyte in solution flowing over the chip surface determine the rate at which analyte binds to the chip. In this experiment, the concentration of free RSPO-1 in solution is determined by the initial rate of binding to a CMS Biacore chip containing immobilized GPR49-Fc. Into these RSPO-1 solutions were titrated the competing GPR49-Fc.

[1] = system: NIH 3T3 fibroblast cells stably transfected with GPR49; assay: Cell Titer Glo proliferation of GPR49-3T3 cells; assay type: cell-based

T1 sequence (O75473 with tags, fused parts or gaps): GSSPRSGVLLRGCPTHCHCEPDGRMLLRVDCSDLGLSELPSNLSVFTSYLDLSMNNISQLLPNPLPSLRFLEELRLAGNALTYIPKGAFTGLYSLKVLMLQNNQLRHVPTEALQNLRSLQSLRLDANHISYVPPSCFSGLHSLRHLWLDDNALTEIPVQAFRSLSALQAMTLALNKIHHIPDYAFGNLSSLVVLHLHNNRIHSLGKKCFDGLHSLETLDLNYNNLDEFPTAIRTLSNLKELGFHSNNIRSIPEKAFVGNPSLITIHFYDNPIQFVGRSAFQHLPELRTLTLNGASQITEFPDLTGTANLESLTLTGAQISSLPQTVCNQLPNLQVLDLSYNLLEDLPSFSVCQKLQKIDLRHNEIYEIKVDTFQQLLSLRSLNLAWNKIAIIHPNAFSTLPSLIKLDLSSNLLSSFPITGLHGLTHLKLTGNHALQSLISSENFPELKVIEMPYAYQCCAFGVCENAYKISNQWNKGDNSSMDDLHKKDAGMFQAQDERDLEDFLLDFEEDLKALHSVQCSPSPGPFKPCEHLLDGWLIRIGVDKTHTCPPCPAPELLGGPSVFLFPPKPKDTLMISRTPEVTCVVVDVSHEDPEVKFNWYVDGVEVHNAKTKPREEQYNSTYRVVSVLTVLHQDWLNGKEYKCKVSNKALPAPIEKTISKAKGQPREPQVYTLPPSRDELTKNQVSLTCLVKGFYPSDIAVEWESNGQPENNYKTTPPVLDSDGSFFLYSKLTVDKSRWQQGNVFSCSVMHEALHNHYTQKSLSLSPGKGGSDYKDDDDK

B1: R-spondin 1: R-spondin family ligand purchased from R& D systems (protein, UniProt Q2MKA7 21-263, looked up)
R-spondin-1: SRGIKGKRQRRISAEGSQACAKGCELCSEVNGCLKCSPKLFILLERNDIRQVGVCLPSCPPGYFDARNPDMNKCIKCKIEHCEACFSHNFCTKCKEGLYLHKGRCYPACPEGSSAANGTMECSSPAQCEMSEWSPWGPCSKKQQLCGFRRGSEERTRRVLHAPVGDHAACSDTKETRRCTVRRVPCPEGQKRRKGGQGRRENANRNLARKESKEAGAGSRRRKGQQQQQQQGTVGPLTSAGPA
binding profile to GPR49-Fc (GPR49-Fc): bi-phasic binding profile | increase in proliferation ([1]; GPR49-3T3 clone 28, compared to Stanniocalcin): 4 fold | increase in cell proliferation ([1]; GPR49-3T3 clone 50, 2 days, serum free, compared to Stanniocalcin): 25-40%

From patent publication US10196442B2, “Methods of inhibiting growth of a colon cancer tumor in a subject by administering monoclonal antibodies to G protein-coupled receptor 49 (GPR49)” (Bionomics Inc., priority 2011, dated 2019)
